This assay addresses 152 patient-derived subtype B viruses obtained from pre-ART plasma. Briefly: cell-based or functional assay.

B1: 1.52.90-1 (antibody, V domains shown)
VH: QVQLLQSGAAVTKPGASVRVSCEASGYNIRDYFIHWWRQAPGQGLQWVGWINPKTGQPNNPRQFQGRVSLTRHASFDFDTFSFYMDLKALRSDDTAVYFCARQRSDYWDFDVWGSGTQVTVSS
VL: DIQMTQSPSSLSASVGDRATITCQANGYLNWYQQRRGKAPKLLIYDGSKLERGVPSRFSGSRWGQEYNLTISSLQPEDIATYFCQVYEFFGPGTRLDLKR
In turn, B1 displayed a Breadth (% viruses neutralized with an IC95 ≤ 50 µg/mL) of 78%, a Geomean IC95 (neutralization) of 4.56 µg/mL and a Median IC95 (neutralization) of 4.42 µg/mL.

(Values after US20220089698A1.)
